Data reported in PMC10140047, “BICD2 phosphorylation regulates dynein function and centrosome separation in G2 and M” (Nature Communications, 2023).
Substitutions are numbered along the chain they refer to. In names and notes the source's numbering stands.

B1: TwinStrep-BICD2 WT (natural protein, mouse, UniProt Q921C5 1-820, looked up)
chain: MSAPSEEEEYARLVMEAQPEWLRAEVKRLSHELAETTREKIQAAEYGLAVLEEKHQLKLQFEELEVDYEAIRSEMEQLKEAFGQAHTNHKKVAADGESREESLIQESASKEQYYVRKVLELQTELKQLRNVLTNTQSENERLTSVAQELKEINQNVEIQRGRLRDDIKEYKFREARLLQDYSELEEENISLQKQVSVLRQNQVEFEGLKHEIKRLEEETEYLNSQLEDAIRLKEISERQLEEALETLKTEREQKNNLRKELSHYMSINDSFYTSHLQVSLDGLKFSDDTVTAEPNNDAEALVNGFEHSGLVKSSLDNKTSTPRKDGLAPPSPSLVSDLLSELHISEIQKLKQQLVQMEREKVGLLATLQDTQKQLEQARGTLSEQHEKVNRLTENLSALRRLQAGKERQTSLDNEKDRDSHEDGDYYEVDINGPEILACKYHVAVAEAGELREQLKALRSTHEAREAQHAEEKGRYEAEGQALTEKISLLEKASHQDRELLAHLEKELKKVSDVAGETQGSLNVAQDELVTFSEELANLYHHVCMCNNETPNRVMLDYYREGQGKAGRTSPEGRGRRSPVLLPKGLLATEVGRADGGTGDNSPSPSSSLPSPLSDPRREPMNIYNLIAIIRDQIKHLQAAVDRTTELSRQRIASQELGPAVDKDKEALMEEILKLKSLLSTKREQITTLRTVLKANKQTAEVALANLKSKYENEKAMVTETMMKLRNELKALKEDAATFSSLRAMFATRCDEYITQLDEMQRQLAAAEDEKKTLNSLLRMAIQQKLALTQRLELLELDHEQTRRGRSKAASKAKPASPSL
notes: BICD2, mouse cDNA amplified from the pEGFP constructs into pLIB-TwinStrep-3C-BICD2; A 3C site lies between tag and protein; no cleavage is described; also called full-length BICD2 WT; wild type TwinStrep-BICD2; source: insect cells (baculovirus), purified (StrepTactinXT, Superdex 200); not shown: TwinStrep, N-terminal, kept
B2: GST-Rab6A (natural protein, human, UniProt P20340 1-208, looked up)
chain: MSTGGDFGNPLRKFKLVFLGEQSVGKTSLITRFMYDSFDNTYQATIGIDFLSKTMYLEDRTVRLQLWDTAGQERFRSLIPSYIRDSTVAVVVYDITNVNSFQQTTKWIDDVRTERGSDVIIMLVGNKTDLADKRQVSIEEGERKAKELNVMFIETSAKAGYNVKQLFRRVAAALPGMESTQDRSREDMIDIKLEKPQEQPVSEGGCSC
notes: Preloaded with either GDP or GTPγS before the pull-down
B3: TwinStrep-BICD2 S102D (natural protein, mouse, UniProt Q921C5 1-820, looked up)
chain: B1 chain with S102D
notes: BICD2, mouse, with S102D (pLIB-TwinStrep-3C-BICD2 S102D); A 3C site lies between tag and protein; no cleavage is described; also called full-length BICD2 S102D; S102D TwinStrep-BICD2; source: insect cells (baculovirus), purified (StrepTactinXT, Superdex 200); not shown: TwinStrep, N-terminal, kept

Tests used:
GST-Rab6A = molecular target: B2; assay: pull-down; GST-Rab6 on GSH agarose beads preloaded with GTPγS, incubated 90 min at RT with purified TwinStrep-BICD2 in Binding Buffer (50 mM Tris pH 7.4, 125 mM NaCl, 5 mM EDTA, 0.1% NP40); blot with anti-BICD2; details: both partners purified
TwinStrep-BICD2 S102D = molecular target: B3; assay: as above; details: both partners purified
[1] = molecular target: the molecule itself; assay: SEC-MALS; purified TwinStrep-BICD2 WT and S102D; predicted MW of ~190 kDa

| Binder | fold binding against Rab6 preloaded with GDP (GST-Rab6A) | binding result (TwinStrep-BICD2 S102D) | stoichiometry N [1] |
| --- | --- | --- | --- |
| B1 | ~5 fold | – | – |
| B2 | – | binds | – |
| B3 | ~5 fold | – | 2 |
